According to US20110223176A1 (AbbVie / Abbott, published 2011):

Legend:
[1] = molecular target: T1, cynomolgus monkey BSG2 on the cell surface (cynomolgus monkey); test: receptor binding assay, Eu-labeled antibody on cells expressing cynomolgus BSG2
T1 construct: whole, on cells; also called BAF3-cyno BSG2; Cyno BSG2
Experimental: Cell lines expressing BSG2 were harvested and washed once in assay buffer (PBS, 0.1% BSA, 0.02% Na Azide, 10 mM EDTA) and resuspended to 5×10⁶ cells per mL. Serial 1:2 dilutions of ⁺³Eu-labeled anti-BSG2 antibody stock in assay buffer were made for final concentrations ranging from 1.6×10⁻⁸-7.7×10⁻¹² M, and a 4 mg/mL solution of unlabeled anti-BSG2 antibody was also prepared. To 96 well round bottom plates, 25 μl of ⁺³Eu-labeled antibody dilutions were added to 25 μl buffer (total counts), or 25 μl of unlabeled antibody were added to 25 μl buffer (background counts). 50 μl of cells at 2.5×10⁵ cells per well were then added to all samples, mixed gently, and incubated on ice for 1 hour. […] Signal was determined by incubating samples with 150 μL/well of enhancement buffer and read using Envision. The specific counts were determined by subtracting the background counts (cells+labeled antibody+excess cold antibody) from the corresponding total counts (cells+labeled antibody) for each antibody concentration. The labeled antibody concentration versus total counts was analyzed using Graphpad Prism 4 to calculate Kd and Bmax values.
(§1) BSG2 antibody binding activities against whole cells expressing human or cynomolgus monkey BSG2 were assessed by ECL using MSD technology (described in Example 1.3) and the receptor binding assay (described in Example 1.4) and are shown in Table 11.

[2] = molecular target: T2, human BSG2 (basigin isoform 2) on the cell surface (human, UniProt P35613 140-385); test: flow cytometry (FACS) on HepG2 hepatocellular carcinoma cells (cell-surface BSG2); HepG2 hepatocellular carcinoma cells (endogenous BSG2), not BAF3 transfectants
T2 construct: Presented on stably transfected BAF3 cells or endogenously on human tumor cell lines (HepG2, MiaPaCa-2, DoHH-2); also called hBSG2; CD147
T2 sequence: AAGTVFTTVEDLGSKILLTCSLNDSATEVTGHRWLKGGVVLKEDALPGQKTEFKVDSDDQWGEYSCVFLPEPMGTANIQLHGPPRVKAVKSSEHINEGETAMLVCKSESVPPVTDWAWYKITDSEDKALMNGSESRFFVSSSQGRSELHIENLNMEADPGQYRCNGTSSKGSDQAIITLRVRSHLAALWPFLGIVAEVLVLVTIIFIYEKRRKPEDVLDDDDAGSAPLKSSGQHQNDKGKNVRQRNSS
Experimental: (§2) Stable cell lines overexpressing cell-surface BSG2 or human tumor cell lines were harvested from tissue culture flasks, washed three times and resuspended in phosphate buffered saline (PBS) containing 1% bovine serum albumin and 1 mM CaCl₂ (FACS buffer). 5×10⁵ cells were incubated with antibodies at various concentrations in FACS buffer for 60 minutes on ice. Cells were washed twice and the bound murine monoclonal antibody was detected with a goat Fab′2 anti-mouse IgM+IgG+IgA (H+L) R-phycoerythrin-conjugated antibody (Southern Biotechnology Associates, Inc., Birmingham, Ala., Catalog No. 1012-08) diluted 1:500. Following incubation on ice (4° C., 60 minutes), cells were washed three times and resuspended in FACS buffer. Fluorescence was measured using a Becton Dickinson FACSCalibur-HTS (Becton Dickinson, San Jose, Calif., US). Data were analyzed using Graphpad Prism software and EC₅₀ values were reported as the concentration of antibody to achieve 50% of maximal BSG2 antibodies binding to BSG2 expressing cells.

[3] = molecular target: T2, human BSG2 (basigin isoform 2) on the …; test: receptor binding assay, Eu-labeled antibody on cells expressing human BSG2
Experimental: Cell lines expressing BSG2 were harvested and washed once in assay buffer (PBS, 0.1% BSA, 0.02% Na Azide, 10 mM EDTA) and resuspended to 5×10⁶ cells per mL. Serial 1:2 dilutions of ⁺³Eu-labeled anti-BSG2 antibody stock in assay buffer were made for final concentrations ranging from 1.6×10⁻⁸-7.7×10⁻¹² M, and a 4 mg/mL solution of unlabeled anti-BSG2 antibody was also prepared. To 96 well round bottom plates, 25 μl of ⁺³Eu-labeled antibody dilutions were added to 25 μl buffer (total counts), or 25 μl of unlabeled antibody were added to 25 μl buffer (background counts). 50 μl of cells at 2.5×10⁵ cells per well were then added to all samples, mixed gently, and incubated on ice for 1 hour. Cell bound antibody was then separated from unbound antibody by transferring 20 μL of the reaction mixture to Acrowell 96 well filter plates (Pall PN 5020), centrifuged for 5 min (2200 rpm), washed 3× with 150 μL cold assay buffer, and centrifuged for 5 min. Signal was determined by incubating samples with 150 μL/well of enhancement buffer and read using Envision. The specific counts were determined by subtracting the background counts (cells+labeled antibody+excess cold antibody) from the corresponding total counts (cells+labeled antibody) for each antibody concentration. The labeled antibody concentration versus total counts was analyzed using Graphpad Prism 4 to calculate Kd and Bmax values.
as §1

[4] = molecular target: T2, human BSG2 (basigin isoform 2) on the …; test: cell-based ECL (MSD) binding on whole cells expressing human BSG2
[5] = molecular target: T2, human BSG2 (basigin isoform 2) on the …; test: cell-based ECL (MSD) binding on cells expressing human BSG2
Experimental: (§3) Cells were plated at 25,000 cells/well in 25 μl PBS using 96 well MSD high binding plates (MSD, catalogue no. L11XB-3), and incubated at 37° C. for 1 hour. 25 μl/well of blocking solution (30% serum in PBS) was added to the plates for 30 minutes at room temperature with mild agitation. Plates were then incubated with 25 μl/well of BSG2 antibodies (10 μg/ml) diluted in assay buffer (10% serum in PBS) for 1 hour at room temperature with mild agitation, and then washed 3× with PBS. Goat anti-mouse or anti-human IgG sulfotag was added at 1 μg/ml for 1 hour with mild agitation, and plates were washed 3× with PBS. After the final wash, plates were incubated with 2×MSD surfactant-free read buffer (catalogue no. R92TD-2) and the signal was detected on a MSD SECTOR Imager 6000. Data were analyzed using Graphpad Prism software and EC₅₀ values were reported.
Select humanized variants were also tested for their functionality using ADCC and cell viability assays (described in Examples 1.6 and 1.7).

[6] = molecular target: T2, human BSG2 (basigin isoform 2) on the …; test: flow cytometry (FACS) on BAF3 cells expressing human BSG2
Experimental: as §2

[7] = molecular target: T1, cynomolgus monkey BSG2 on the cell …; test: cell-based ECL (MSD) binding on whole cells expressing cynomolgus BSG2
Experimental: as §3, §1

Kd [1]: 3.6 nM | EC50 [2]: 0.32 nM | Kd [3]: 2 nM | EC50 [4]: 0.6 nM | EC50 [5]: 0.6 nM | EC50 [6]: 0.41 nM | EC50 [7]: 7.6 nM
B1: mouse anti-human BSG2 monoclonal antibody ML64-6A11-3A3 (antibody, mouse IgG2a, V domains shown)
VH: EVKLEESGGGLVQPGGSMKLSCVASGFTFSNFWMDWVRQSPEKGLEWIAGIRLKSYNYATHYAESVKGRFTISRDDSKSSVYLQMNNLRAEDTGIYYCTDWDGAYWGQGTLVTVSA
VL: DIVMTQSHKFMSTSVGDRVSITCKASQDVSTDVAWYQQKPGQSPKLLIYSASYRYTGVPDRFTGSGSGTDFTFTISSVQAEDLAVYYCQQHYSTPFTFGSGTKLEIK
notes: Hybridoma antibody, mouse IgG2a/kappa; also called 6A11-3A3 parental mouse antibody; Ab 3A3
